# Source: paper PMC3934934, “The Self-Interaction of a Nodavirus Replicase Is Enhanced by Mitochondrial Membrane Lipids” (PLoS ONE, 2014)
# B1: His-tagged WhNV protein A, in vitro translated (natural protein)
# chain: MSSVIKTIVVKTLQCTVKCVCVGVRQQYGLLRRHPKTIACALVGGIIAHDVLHLYAAVYRVENPWEFVPTEGPRGVIVLRVYNALRFTAAKWRWNCWTIFGKFPFNSEQFSRIMETSTERKPDLRPLLVPAHETIEVYPCNNIHSHPRSAEFRSSANEYLVRSVRRAGYPPYVVSSSKRDFCDGNRFFYCPKDFGMQFRNDPISNNHALVFTDVDYYANMNRWLQLFLPTCLYTLVPTRLNYSNDEFAYRFENNEIVYNVTGGGEYRHSLWDYKGDTVTVVDEYGNLLIFDIEQRRVQGDEQHRLIWLLPKAKITDPLWIVGPTEWYDKLLVRKTVQQGRLKILWEPIADDLSIGLHGSNYSVSLKGELFEAIRTRISCKDSTPYVSDVERMLREAKHKNFLTDAPILYHCFQDDVIIRPNVVKTGSFPVTYNAIPKKAPSVTEDPKMPGQVVTTPLVSQPALFAGKGFNADKACIEGRIEKVRNVTKFPIKYVRYAAEFVKLVIPETIAGTGVPNSIGMIREEQDKVAQRARFDRVAPIMSTQTENSIKAFIKTEMYAAAKAPRNISTMAPEITIQSSAYSLPMAKIFKKIPWYCPGKNPKEITLRLAEVCLQDPDHELEEGDYTCMDGTQSPDYSDLLLLPIYMRYFAKQYRGQFKNLYNQIYKQRATTSSGVPYNPEMTIRSGSSITTHAGTLNNAFNIYAALRDMGYDETTAWDKVGAVFGDDSLNANHQGEFHSYIEHVTKVLGMRYKSNLRERGQPVLFLGRYFVDPITSYDSFADPMRTIGKLHATANKNVSVEQGAANKAHGYITTDSKTPIIGAWARRVLEITKKKFKNGTGEEQYRCSNAWPQKDEAAIRAAMAAVLEVDEAQLIAQNEAVLKVNSLDQFPVVFDTYYDHKQLAEVDGQLVGTDLHIKEEDERQPETSIDSVPSTGPPPSNGDPNAGGKPTDGPSKGKRKVKGRRPRTAGDPATLRLTDAGSSRRVKPPRKLRPEAKRGGRPIETLVFKNSSLS
# notes: also called His-protA; FL His-protA; source: in vitro translated in nuclease-treated rabbit reticulocyte lysates
# What was measured:
# Assay in all cases: pull-down; MBP fusion protein (1 µM) held on amylose resin, His-tagged protein (1 µM) in vitro translated in rabbit reticulocyte lysate; room temperature, 4 hrs; no lipids; Western blot with anti-His; signals given as % of FL to FL protein A self-interaction
# Settings in all cases: one partner purified
# [1] = biological target: T1, MBP-protA fragment aa 255–480 (Wuhan nodavirus (WhNV), UniProt Q3KSM3 255-480)
# T1 construct: source: E. coli strain TB1, purified (amylose resin); not shown: MBP, N-terminal, kept
# T1 sequence: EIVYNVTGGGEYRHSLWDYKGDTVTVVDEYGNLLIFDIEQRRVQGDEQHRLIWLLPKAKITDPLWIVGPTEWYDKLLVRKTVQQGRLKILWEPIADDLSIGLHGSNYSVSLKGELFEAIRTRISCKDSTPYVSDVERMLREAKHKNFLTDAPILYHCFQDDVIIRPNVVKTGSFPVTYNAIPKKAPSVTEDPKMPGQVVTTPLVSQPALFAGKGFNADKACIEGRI
# [2] = biological target: T2, MBP-protA fragment aa 1–480 (Wuhan nodavirus (WhNV), UniProt Q3KSM3 1-480)
# T2 construct: also called 1–480 MBP/protA; source: E. coli strain TB1, purified (amylose resin); not shown: MBP, N-terminal, kept
# T2 sequence: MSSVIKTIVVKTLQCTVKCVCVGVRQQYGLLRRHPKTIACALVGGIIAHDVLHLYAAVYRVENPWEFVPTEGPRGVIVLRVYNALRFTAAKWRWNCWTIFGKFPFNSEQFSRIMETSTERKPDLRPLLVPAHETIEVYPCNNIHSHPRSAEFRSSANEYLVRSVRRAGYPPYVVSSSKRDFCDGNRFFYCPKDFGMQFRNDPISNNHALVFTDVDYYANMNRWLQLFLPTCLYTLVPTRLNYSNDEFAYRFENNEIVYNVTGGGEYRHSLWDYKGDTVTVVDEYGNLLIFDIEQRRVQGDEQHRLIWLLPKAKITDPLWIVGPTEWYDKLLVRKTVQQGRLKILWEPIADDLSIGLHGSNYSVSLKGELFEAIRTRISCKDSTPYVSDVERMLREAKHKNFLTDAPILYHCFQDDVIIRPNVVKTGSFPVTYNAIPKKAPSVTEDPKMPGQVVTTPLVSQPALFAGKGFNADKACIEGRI
# [3] = biological target: T3, MBP-protA fragment aa 1–254 (Wuhan nodavirus (WhNV), UniProt Q3KSM3 1-254)
# T3 construct: also called 1–254 MBP/protA; source: E. coli strain TB1, purified (amylose resin); not shown: MBP, N-terminal, kept
# T3 sequence: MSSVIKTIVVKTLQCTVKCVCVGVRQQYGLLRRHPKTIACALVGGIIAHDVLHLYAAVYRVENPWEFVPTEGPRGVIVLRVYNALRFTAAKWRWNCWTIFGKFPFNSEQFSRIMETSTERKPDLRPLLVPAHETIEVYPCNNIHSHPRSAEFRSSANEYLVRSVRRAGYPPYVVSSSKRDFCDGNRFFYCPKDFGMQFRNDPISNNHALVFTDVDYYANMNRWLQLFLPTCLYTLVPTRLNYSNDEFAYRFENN
# [4] = biological target: T4, MBP-protA fragment aa 1–659 (Wuhan nodavirus (WhNV), UniProt Q3KSM3 1-659)
# T4 construct: also called 1–659 MBP/protA; source: E. coli strain TB1, purified (amylose resin); not shown: MBP, N-terminal, kept
# T4 sequence: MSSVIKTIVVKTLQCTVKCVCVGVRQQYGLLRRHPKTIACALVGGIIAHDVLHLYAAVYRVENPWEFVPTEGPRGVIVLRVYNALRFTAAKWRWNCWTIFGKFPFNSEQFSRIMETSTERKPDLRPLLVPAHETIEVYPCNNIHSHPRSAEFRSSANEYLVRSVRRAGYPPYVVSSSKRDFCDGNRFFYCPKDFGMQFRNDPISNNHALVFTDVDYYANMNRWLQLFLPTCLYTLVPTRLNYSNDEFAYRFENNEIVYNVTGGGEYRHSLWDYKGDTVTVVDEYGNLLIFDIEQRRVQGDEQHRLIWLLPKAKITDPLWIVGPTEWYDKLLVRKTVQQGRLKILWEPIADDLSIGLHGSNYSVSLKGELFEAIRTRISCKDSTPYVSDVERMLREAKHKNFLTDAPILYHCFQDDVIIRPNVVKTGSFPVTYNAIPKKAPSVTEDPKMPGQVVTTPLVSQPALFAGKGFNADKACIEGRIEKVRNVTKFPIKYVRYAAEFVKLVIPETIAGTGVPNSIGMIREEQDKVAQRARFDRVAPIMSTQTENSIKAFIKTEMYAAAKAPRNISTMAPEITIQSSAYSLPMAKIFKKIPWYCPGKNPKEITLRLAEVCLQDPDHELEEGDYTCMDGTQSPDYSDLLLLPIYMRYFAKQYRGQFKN
binder,measurement,setting,value
B1,"self-interaction efficiency, % of FL to FL protein A self-interaction",[1],52%
same,"self-interaction efficiency, % of FL to FL protein A self-interaction",[2],94%
same,"self-interaction efficiency, % of FL to FL protein A self-interaction",[3],67%
same,"self-interaction efficiency, % of FL to FL protein A self-interaction",[4],96%
